Results reported in patent US9869668B2, “PDGF as a biomarker for predicting resistance or effect of c-Met targeting drugs” (SAMSUNG ELECTRONICS CO., LTD., priority 2014, dated 2018).

B1: SAIT301: anti-c-Met antibody: huAbF46-H4-A1 heavy chain variable region, human IgG2 hinge and constant region, kappa light chain (antibody)
heavy: EVQLVESGGGLVQPGGSLRLSCAASGFTFTDYYMSWVRQAPGKGLEWLGFIRNKANGYTTEYSASVKGRFTISRDNSKNTLYLQMNSLRAEDTAVYYCARDNWFAYWGQGTLVTVSSASTKGPSVFPLAPCSRSTSESTAALGCLVKDYFPEPVTVSWNSGALTSGVHTFPAVLQSSGLYSLSSVVTVPSSNFGTQTYTCNVDHKPSNTKVDKTVERKCCVECPPCPAPPVAGPSVFLFPPKPKDTLMISRTPEVTCVVVDVSHEDPEVQFNWYVDGVEVHNAKTKPREEQFNSTFRVVSVLTVVHQDWLNGKEYKCKVSNKGLPAPIEKTISKTKGQPREPQVYTLPPSREEMTKNQVSLTCLVKGFYPSDIAVEWESNGQPENNYKTTPPMLDSDGSFFLYSKLTVDKSRWQQGNVFSCSVMHEALHNHYTQKSLSLSPGK
light: DIQMTQSPSSLSASVGDRVTITCKSSQSLLASGNQNNYLAWYQQKPGKAPKMLIIWASTRVSGVPSRFSGSGSGTDFTLTISSLQPEDFATYYCQQSYSRPYTFGQGTKVEIKRTVAAPSVFIFPPSDEQLKSGTASVVCLLNNFYPREAKVQWKVDNALQSGNSQESVTEQDSKDSTYSLSSTLTLSKADYEKHKVYACEVTHQGLSSPVTKSFNRGEC

How the values were obtained:
Format in all cases: cell-based
[1] = tested on: EBC1-SR#6 cell line (compared with EBC1 parental cell line); assay: EZ-Cytox cell viability assay, 72 hours after treatment; details: EBC1-SR#6 vs EBC1 parental cell line, sole treatment, FIG. 2/FIG. 3
Protocol: To examine whether the quantitative increase of PDGF protein contributes to obtaining resistance in anti-c-Met antibody resistance acquired cell line, EBC1 and EBC1-SR#6 cell lines were treated with PDGFR (PDGF Receptor) TKI (tyrosine kinase inhibitor), then the changes of cell growth inhibition were measured using EZ-Cytox Cell viability assay kit (DaeiLab Service, Seoul, Korea).
For this, each of EBC1 cells and EBC1-SR#6 cells were seeded on 96-well plate at the amount of 5000 (5×10^3) cells. […] Seventy two hours after the treatment, the number of the cells was measured by EZ-Cytox Cell viability assay kit.

[2] = tested on: EBC1-SR#6 cell lines; assay: CellTiter Glo assay confirming acquired resistance to SAIT301; details: resistance-acquired clones; 0-2 ug/ml; 72 hours after the antibody treatment
Protocol: EBC1 (JCRB 0820) cell lines was treated with SAIT301 for at least 2 months, with increasing the concentration of treated antibody. The concentration of SAIT301 was increased from 1 ug/ml to 10 ug/ml until a resistance is induced. To confirm the acquisition of a resistance to SAIT301, the prepared clones were treated with SAIT301 at the concentration of 0 ug/ml, 0.016 ug/ml, 0.08 ug/ml, 0.4 ug/ml, or 2 ug/ml, and 72 hours after the antibody treatment, the number of the living cells was counted by CellTiter Glo assay (Promega, G7573).
The obtained SAIT301 resistance acquired cell lines were named EBC1-SR#6.

[3] = tested on: EBC1 parent cells; assay: Responsiveness of parent cells to SAIT301 before inducing resistance
Protocol: To examine the quantitative change of PDGF when a resistance to an anti-c-Met antibody is induced, SAIT301 resistance acquired EBC1-SR#6 cell lines were prepared by repeatedly treating EBC1 (JCRB 0820) cells with SAIT301. EBC1 parent cells were all responsive to SAIT301, before inducing SAIT301 resistance. The SAIT301 resistance acquired EBC1-SR#6 cell lines were prepared as follows: […]

| Molecule | chemosensitivity of EBC1-SR#6 cell line compared with EBC1 [1] | effect of antibody on number of living cells [2] | responsiveness of cells to antibody [3] |
| --- | --- | --- | --- |
| CCN(CC)CCCCNc1ncc2cc(-c3cc(OC)cc(OC)c3)c(NC(=O)NC(C)(C)C)nc2n1 [PD173074] | not changed markedly | – | – |
| B1 | – | no effect | responsive |
